Assay [1] has as its target T1, ΔNPM1 (mutant NPM1; dNPM1) peptide on HLA-A*03:01 (human).
T1 peptide: AVEEVSLRK
Description: cytokine release.

In assay [2] the target is T2, ΔNPM1 (mutant NPM1; dNPM1) peptide on HLA-A*11:01 (human).
T2 peptide: AVEEVSLRK
Description: multimer staining.

Assay [3] concerns the target T3, HLA-A*03:01 (monomer for refolding) (human).
T3 construct: Monomer production is described in detail only for HLA-A*02:01
Description: monomer refolding.

Assay [4] has as its target T4, HLA-A*11:01 (monomer for refolding) (human).
T4 construct: Monomer production is described in detail only for HLA-A*02:01
Nature of the assay: monomer refolding.

Assay [5] addresses T5, HLA-A*01:01 (monomer for refolding) (human).
T5 construct: Monomer production is described in detail only for HLA-A*02:01
Nature of the assay: monomer folding for tetramer production.

Assay [6] deals with HLA-A*02:01 (recombinant heavy chain with human β2-microglobulin, monomer) (human). Description: monomer refolding.
Assay [7] has as its target T2, ΔNPM1 (mutant NPM1; dNPM1) peptide on …. Nature of the assay: cytokine release.
Assay [8] addresses T1, ΔNPM1 (mutant NPM1; dNPM1) peptide on …. Description: multimer staining.
In assay [9] the target is T6, ΔNPM1 (mutant NPM1; dNPM1) peptide on HLA-A*03:01 (human).
T6 peptide: CLAVEEVSLRK
Nature of the assay: multimer staining.

B1: dNPM1-A*11:01 TCR (clone 6F11) (TCR, V domains shown)
Valpha: AQSVTQLDSQVPVFEEAPVELRCNYSSSVSVYLFWYVQYPNQGLQLLLKYLSGSTLVKGINGFEAEFNKSQTSFHLRKPSVHISDTAEYFCAVSPAGNQFYFGTGTSLTVIP
Vbeta: GAGVSQSPRYKVTKRGQDVALRCDPISGHVSLYWYRQALGQGPEFLTYFNYEAQQDKSGLPNDRFSAERPEGSISTLTIQRTEQRDSAMYRCASSLGSNQPQHFGDGTRLSIL
Regarding B1, the binding result in assay [1] is “no recognition”; in assay [2] it was “recognises”.
Consider CLAVEEVSLRK (Synthetic peptide) [ΔNPM1 peptide CLAVEEVSLRK], for which the binding result in assay [3] and in assay [4] was “binds” in each case.

B2: dNPM1-A*11:01 TCR (clone 26.2.D6) (TCR, V domains shown)
Valpha: GEDVEQSLFLSVREGDSSVINCTYTDSSSTYLYWYKQEPGAGLQLLTYIFSNMDMKQDQRLTVLLNKKDKHLSLRIADTQTGDSAIYFCAESKGQNFVFGPGTRLSVLP
Vbeta: DGGITQSPKYLFRKEGQNVTLSCEQNLNHDAMYWYRQDPGQGLRLIYYSHIVNDFQKGDIAEGYSVSREKKESFPLTVTSAQKNPTAFYLCASTTWGTGGHEQYFGPGTRLTVT
For the molecule B2, the binding result is reported as “no recognition” in assay [1] and “recognises” in assay [2].

B3: ΔNPM1 peptide AVEEVSLRK (peptide)
peptide: AVEEVSLRK
notes: Eluted natural ligand in the ligandome work
Turning to B3, the binding result in assay [3], in assay [4] and in [5] was “binds” throughout.
Consider CLAVEEVSL (Synthetic peptide) [ΔNPM1 peptide CLAVEEVSL], for which the binding result in assay [6] is listed as “binds”.

B4: dNPM1-A*03:01 TCR (clone 31.3.F1) (TCR, V domains shown)
Valpha: QKEVEQNSGPLSVPEGAIASLNCTYSDRGSQSFFWYRQYSGKSPELIMSIYSNGDKEDGRFTAQLNKASQYVSLLIRDSQPSDSATYLCALSGGGQNFVFGPGTRLSVLP
Vbeta: EAGVTQFPSHSVIEKGQTVTLRCDPISGHDNLYWYRRVMGKEIKFLLHFVKESKQDESGMPNNRFLAERTGGTYSTLKVQPAELEDSGVYFCASSQGSGFRHFGDGTRLSIL
As to B4, the binding result in assay [7] is on record as “no recognition”; in [8], “recognises”; in [9] it was “no recognition”.

These data come from patent publication US20250304651A1 (ACADEMISCH ZIEKENHUIS LEIDEN H O D N LEIDS UNIVERSITAIR …, published 2025).
